Measured values: patent US20090280138A1 (OXFORD BIOMEDICA UK, published 2009)

B1: 5T4 9-mer peptide 95 ERQNRSFEG (peptide)
peptide: ERQNRSFEG
B2: 5T4 9-mer peptide 97 RSFEGMVVA (peptide)
peptide: RSFEGMVVA
B3: 5T4 9-mer peptide 107 RRLELASNH (peptide)
peptide: RRLELASNH
B4: 5T4 9-mer peptide 111 HFLYLPRDV (peptide)
peptide: HFLYLPRDV
B5: 5T4 9-mer peptide 94 EDERQNRSF (peptide)
peptide: EDERQNRSF
B6: 5T4 9-mer peptide 134 (peptide)
peptide: DNALKVLHN
B7: 5T4 9-mer peptide 136 (peptide)
peptide: KVLHNGTLA
B8: 5T4 9-mer peptide 118 SLRHLDLSN (peptide)
peptide: SLRHLDLSN
B9: 5T4 9-mer peptide 115 VLAQLPSLR (peptide)
peptide: VLAQLPSLR
B10: 5T4 9-mer peptide 130 (peptide)
peptide: HLESLHLED
notes: also called HLESLHLED
B11: 5T4 9-mer peptide 137 (peptide)
peptide: LHNGTLAEL
B12: 5T4 9-mer peptide 123 (peptide)
peptide: SLVSLTYVS
B13: 5T4 9-mer peptide 103 AGRALQGLR (peptide)
peptide: AGRALQGLR
B14: 5T4 9-mer peptide 132 (peptide)
peptide: LHLEDNALK
B15: 5T4 9-mer peptide 112 LYLPRDVLA (peptide)
peptide: LYLPRDVLA
B16: 5T4 9-mer peptide 119 RHLDLSNNS (peptide)
peptide: RHLDLSNNS
B17: 5T4 9-mer peptide 121 (peptide)
peptide: LSNNSLVSL
B18: 5T4 9-mer peptide 110 SNHFLYLPR (peptide)
peptide: SNHFLYLPR
B19: 5T4 9-mer peptide 122 (peptide)
peptide: NNSLVSLTY
B20: 5T4 9-mer peptide 93 PPEDERQNR (peptide)
peptide: PPEDERQNR
B21: 5T4 9-mer peptide 96 QNRSFEGMV (peptide)
peptide: QNRSFEGMV
B22: 5T4 9-mer peptide 127 (peptide)
peptide: SFRNLTHLE
B23: 5T4 9-mer peptide 101 AALLAGRAL (peptide)
peptide: AALLAGRAL
B24: 5T4 9-mer peptide 100 VVAALLAGR (peptide)
peptide: VVAALLAGR
B25: 5T4 9-mer peptide 120 (peptide)
peptide: LDLSNNSLV
B26: 5T4 9-mer peptide 129 (peptide)
peptide: LTHLESLHL
B27: 5T4 9-mer peptide 128 (peptide)
peptide: RNLTHLESL
B28: 5T4 9-mer peptide 131 (peptide)
peptide: ESLHLEDNA
B29: 5T4 9-mer peptide 104 RALQGLRRL (peptide)
peptide: RALQGLRRL
B30: 5T4 9-mer peptide 116 AQLPSLRHL (peptide)
peptide: AQLPSLRHL
B31: 5T4 9-mer peptide 109 LASNHFLYL (peptide)
peptide: LASNHFLYL
B32: 5T4 9-mer peptide 102 LLAGRALQG (peptide)
peptide: LLAGRALQG
B33: 5T4 9-mer peptide 108 LELASNHFL (peptide)
peptide: LELASNHFL
B34: 5T4 9-mer peptide 113 LPRDVLAQL (peptide)
peptide: LPRDVLAQL
B35: 5T4 9-mer peptide 114 RDVLAQLPS (peptide)
peptide: RDVLAQLPS
B36: 5T4 9-mer peptide 133 (peptide)
peptide: LEDNALKVL
B37: 5T4 9-mer peptide 138 (peptide)
peptide: NGTLAELQG
B38: 5T4 9-mer peptide 99 GMVVAALLA (peptide)
peptide: GMVVAALLA
B39: 5T4 9-mer peptide 106 GLRRLELAS (peptide)
peptide: GLRRLELAS
B40: 5T4 9-mer peptide 135 (peptide)
peptide: ALKVLHNGT
B41: 5T4 9-mer peptide 105 LQGLRRLEL (peptide)
peptide: LQGLRRLEL
B42: 5T4 9-mer peptide 98 FEGMVVAAL (peptide)
peptide: FEGMVVAAL
B43: 5T4 9-mer peptide 124 (peptide)
peptide: VSLTYVSFR

Experiments:
[1] = molecular target: T1, MHC class I molecule B*0702 (biotin (bound to streptavidin-coated plate)); experiment: iTopia iScore
T1 construct: also called B7; HLA-B7
Protocol: (§1) The 9 mers were tested for Peptide Binding, Off Rate and Affinity using iTopia Epitope Discovery System in accordance with the manufacturer's instructions. Briefly, 96 well microtitre plates coated with MHC molecules representing different MHC alleles are used to identify candidate peptides. […] Determinations are performed in duplicate using an ELISA plate reader and included allele specific positive controls.
(§2) Finally, multiparametric analysis is performed on the results from these assays and an iScore is generated. The iScore represents a measure of the overall quality of peptide-MHC binding, enabling candidate peptides to be ranked in order of binding quality and allowing rational prioritisation of peptides for functional cellular follow-up studies.

[2] = molecular target: T2, MHC class I molecule A*0301 (biotin (bound to streptavidin-coated plate)); experiment: iTopia iScore
T2 construct: also called A3; HLA-A3
Protocol: as §1, §2

[3] = molecular target: T3, MHC class I molecule A*0201 (biotin (bound to streptavidin-coated plate)); experiment: iTopia iScore
T3 construct: also called A2; HLA-A2
Protocol: as §1, §2

[4] = molecular target: T4, MHC class I molecule A*0101 (biotin (bound to streptavidin-coated plate)); experiment: iTopia iScore
T4 construct: also called A1; HLA-A1
Protocol: as §1, §2

[5] = molecular target: T5, MHC class I allele A*0201 monomer (human, biotinylated, bound to streptavidin-coated plate); experiment: iTopia, multiparametric iScore
T5 construct: also called A2; HLA-A2
Protocol: as §1, §2

[6] = molecular target: T6, MHC class I allele A*0101 monomer (human, biotinylated, bound to streptavidin-coated plate); experiment: iTopia, multiparametric iScore
T6 construct: placeholder peptide and b2M removed, then reconstituted with test peptide and fresh b2M; also called A1; HLA-A1
Protocol: as §1, §2

[7] = molecular target: T7, MHC class I allele B*0702 monomer (human, biotinylated, bound to streptavidin-coated plate); experiment: iTopia, multiparametric iScore
T7 construct: also called B7; HLA-B7
Protocol: as §1, §2

[8] = molecular target: T8, MHC class I allele A*0301 monomer (human, biotinylated, bound to streptavidin-coated plate); experiment: iTopia, multiparametric iScore
T8 construct: also called A3; HLA-A3
Protocol: as §1, §2

Binder	iScore [1]	iScore [2]	iScore [3]	iScore [4]	iScore [5]	iScore [6]	iScore [7]	iScore [8]
B1	0	0	0	0	–	–	–	–
B2	0	0	0.189	0	–	–	–	–
B3	0	0	0	0	–	–	–	–
B4	0	0	0.227	0	–	–	–	–
B5	0	0	0	0	–	–	–	–
B6	–	–	–	–	0	0	0	0
B7	–	–	–	–	0.15	0	0	0
B8	0	0	0.03	0	–	–	–	–
B9	0	0.023	0.113	0	–	–	–	–
B10	–	–	–	–	0	0	0	0
B11	–	–	–	–	0.187	0	0.026	0
B12	–	–	–	–	0.206	0	0	0
B13	0	0	0	0	–	–	–	–
B14	–	–	–	–	0	0	0	0
B15	0	0	0.218	0	–	–	–	–
B16	0	0	0.029	0	–	–	–	–
B17	–	–	–	–	0.116	0	0.012	0
B18	0	0.084	0.051	0	–	–	–	–
B19	–	–	–	–	0	0	0	0
B20	0	0	0	0	–	–	–	–
B21	0	0	0.052	0	–	–	–	–
B22	–	–	–	–	0	0	0	0

Binder	iScore [1]	iScore [2]	iScore [3]	iScore [4]	iScore [5]	iScore [6]	iScore [7]	iScore [8]
B23	0.238	0	0.156	0	–	–	–	–
B24	0	0.125	0	0	–	–	–	–
B25	–	–	–	–	0.156	0	0	0
B26	–	–	–	–	0.143	0	0	0
B27	–	–	–	–	0.072	0	0	0
B28	–	–	–	–	0	0	0	0
B29	0.078	0.027	0.168	0	–	–	–	–
B30	0	0	0.162	0	–	–	–	–
B31	0	0.224	0.337	0.12	–	–	–	–
B32	0	0	0.176	0	–	–	–	–
B33	0	0	0.151	0	–	–	–	–
B34	0.305	0	0	0	–	–	–	–
B35	0	0	0	0	–	–	–	–
B36	–	–	–	–	0.122	0	0	0
B37	–	–	–	–	0	0	0	0
B38	0	0	0.384	0	–	–	–	–
B39	0	0	0.045	0	–	–	–	–
B40	–	–	–	–	0.104	0	0	0
B41	0.119	0	0.114	0	–	–	–	–
B42	0	0	0.051	0	–	–	–	–
B43	–	–	–	–	0	0	0	0.025
